# Measured values from patent US20100135997A1 (MEDGENE, published 2010).
# Positions count from the first letter of the chain named.
# B1: SEQ ID NO 66 (receptor)
# chain: MHLPKPTLWAEPGSVITMDQPVTLRCQGGQETQEYRLYREKKTAPWITRIPQELVKKGQFPIPSITWEHAGRYRCYYGSDTSQWSASSDPLELVVTGVYIKPTLSAQPSPVVNSGGNVTLQCDSQVAFDGFILCKEGEDEHPQCLNSQPHARGSSRAIFSVGPVSPSRRWWYRCYAYDSNSPYEWSLPSDLLELDVDG
# notes: mutated soluble two domain ILT-2
# B2: SEQ ID NO 27 (receptor)
# chain: MHLPKPTLWAEPGSVITLQSPVTLRCQGGQETQQYRLYREKKTAPWITRIPQELVKKGQFPIPSITWEHAGRYRCYYGSDTRQWSASSDPLELVVTGVYIKPTLSAQPSPVVNSGGNVTLQCDSQVAFDGFILCKEGEDDHPQCLNSQPHARGSSRAIFSVGPVSPSRRWRYRCYAYPAWTPYEWSLPSDLLELDVDG
# notes: as for B1
# B3: SEQ ID NO 6 (receptor)
# chain: B2 chain with P178D, A179S, W180N, T181S
# notes: as for B1
# B4: SEQ ID NO 24 (receptor)
# chain: B2 chain with A179I
# notes: as for B1
# B5: SEQ ID NO 42 (receptor)
# chain: B2 chain with V22L, P178D, A179S, W180N, T181S
# notes: as for B1
# B6: SEQ ID NO 114 (receptor)
# chain: B1 chain with M18L, D19G, Q20S
# notes: as for B1
# B7: SEQ ID NO 49 (receptor)
# chain: B2 chain with V22L, P178M, A179S, T181S
# notes: as for B1
# B8: SEQ ID NO 110 (receptor)
# chain: B1 chain with W171R
# notes: as for B1
# B9: SEQ ID NO 28 (receptor)
# chain: B2 chain with P178M, A179S, T181A
# notes: as for B1
# B10: SEQ ID NO 50 (receptor)
# chain: B2 chain with V22L, P178M, A179S, T181A
# notes: as for B1
# B11: SEQ ID NO 26 (receptor)
# chain: B2 chain with P178M, A179N, T181A
# notes: as for B1
# B12: SEQ ID NO 111 (receptor)
# chain: B1 chain with R49L, E140G, R173W
# notes: as for B1
# B13: SEQ ID NO 112 (receptor)
# chain: B1 chain with K41R
# notes: as for B1
# B14: SEQ ID NO 29 (receptor)
# chain: B2 chain with P178M, A179S, T181S
# notes: as for B1
# B15: SEQ ID NO 25 (receptor)
# chain: B2 chain with P178V, T181A
# notes: as for B1
# B16: SEQ ID NO 113 (receptor)
# chain: B1 chain with M18L, D19G
# notes: as for B1
# B17: SEQ ID NO 133 (receptor)
# chain: MGHLPKPTLWAEPGSVITMDQPVTLRCQGGQETQEYRLYREKKTAPWITRIPQELVKKGQFPIPSITWEHAGRYRCYYGSDTSQWSASSDPLELVVTGVYIKPTLSAQPSPVVNSGGNVTLQCDSPFLSDGFILCKEGEDEHPQCLNSQPHARGSSRAIFSVGPVSPSRKWWYRCYAYMSWSPYEWSLPSDLLELDVDG
# notes: as for B1
# B18: SEQ ID NO 134 (receptor)
# chain: B17 chain with L128V, K170R
# notes: as for B1
# B19: SEQ ID NO 136 (receptor)
# chain: B17 chain with P126M, S129V, K170R
# notes: as for B1
# Target: T1, HLA-A*0201 loaded with the Carcinoembryonic antigen (CEA)-derived … peptide (biotin on the C-terminal biotinylation tag)
# T1 construct: Soluble, biotinylated, immobilised on a streptavidin chip
# Test: Biacore SPR
# How it was run: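 Surface plasmon resonance: soluble ILT-like molecule flowed at constant rate over flow cells bearing biotin-tag-captured peptide–MHC. Binding followed as RU change to derive affinity and kinetics.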
Kd [nM],koff [s⁻¹],Binder
≤ 1000,≤ 2,B1
≤ 1000,≤ 2,B2
≤ 1000,≤ 2,B3
≤ 1000,≤ 2,B4
≤ 1000,≤ 2,B5
≤ 1000,≤ 2,B6
≤ 1000,≤ 2,B7
≤ 1000,≤ 2,B8
≤ 1000,≤ 2,B9
≤ 1000,≤ 2,B10
≤ 1000,≤ 2,B11
≤ 1000,≤ 2,B12
≤ 1000,≤ 2,B13
≤ 1000,≤ 2,B14
≤ 1000,≤ 2,B15
≤ 1000,≤ 2,B16
≤ 1000,≤ 2,B17
≤ 1000,≤ 2,B18
≤ 1000,≤ 2,B19
